One test deals with T1, recombinant human IL-1β (human, UniProt P01584 117-269).
T1 construct: Bought protein
The test is described as follows: ELISA, IL-1β coated on plate, anti-human Fc-HRP. On the procedure: (§1) Recombinant human IL-1β (Thermo Fisher Scientific), recombinant mouse IL-1β (Sino Bio), recombinant mouse IL-1R (Sino Bio), or recombinant human IL-1R (100 ng/well) (DPBS buffer, pH7.4) was coated in a 96-well plate, and incubated overnight at 4° C. After blocked by PBST (0.5% Tween-20 in PBS) containing 2% skimmed milk powder for 1 hour at room temperature, and being washed with PBST for 3 times, the gradient diluted bispecific molecules (0.006 nM-100 nM) were added and incubated at 37° C. for 1 h. After being washed with PBST for 3 times, anti-human Fc-HRP (KPL; 1:2500) secondary antibody diluted by 2% milk/PBST was added and incubated at room temperature for 1 h, and then washed by PBST for 5 times. QuantaBlu fluorescent peroxide enzyme substrate (Life technologies, Cat. 15169) was used for color development, and reading was performed at 325 nm and 420 nm, or TMB color reagent (Bio Legend) was used for color development, and the reading was performed at 650 nm. Data was analyzed by nonlinear regression using specific binding model in Prizm Graphpad software.
Background: ELISA stands for enzyme-linked immunosorbent assay.

The target of a further test is T2, recombinant mouse IL-1β (mouse, UniProt P10749 118-269).
T2 construct: Bought protein; also called murine IL-1β
In words: ELISA, IL-1β coated on plate, anti-human Fc-HRP. On the procedure:
as §1

Another test has as its target T3, Recombinant human IL-6 (human, UniProt P05231 30-212).
T3 construct: Bought protein
In words: ELISA, human IL-6 coated on plate, anti-human Fc-HRP. On the procedure: Recombinant human IL-6 (SinoBiological) (100 ng/well) (PBS buffer, pH7.4) was coated in a 96-well plate, and incubated overnight at 4° C. After blocked with PBST containing 2% skimmed milk powder (0.5% Tween-20 in PBS) at room temperature for 1 hour, followed by being washed for 3 times with PBST, the bispecific molecules (0.04 nM-30 nM) in gradient dilutions were added and incubated at 37° C. for 1 h. After being washed for 3 times with PBST, anti-human Fc-HRP (KPL, 1:2500) secondary antibody diluted by 2% milk/PBST was added and incubated at room temperature for 1 h, followed by being washed for 5 times with PBST. TMB (BioLegend) was used for color development, and readings was performed in Thermal VARIOSKAN FLASH plate reader at 650 nm. Data was analyzed with a log[agonist] vs response (3 parameters) model in “non-linear regression” by Graphpad Prizm software.

T3 sequence (P05231 30-212 limits assumed): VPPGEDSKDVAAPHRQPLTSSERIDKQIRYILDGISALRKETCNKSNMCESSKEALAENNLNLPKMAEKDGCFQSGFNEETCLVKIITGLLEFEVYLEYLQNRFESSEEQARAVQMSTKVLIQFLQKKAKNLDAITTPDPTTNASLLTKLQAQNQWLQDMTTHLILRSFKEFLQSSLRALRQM

B1: aIL-1β-2 antibody (antibody, V domains shown)
VH: QVQLQQWGAGLLKPSETLSLTCAVYGGSFSDYYWSWIRQPPGKGLEWIGEIDHSGSTNYNPSLKSRVTISVDTSKNQFSLKLSSVTAADTAVYYCARASPSSGWTLDYWGQGTLVTVSS
VL: QSVLTQPPSVSVSPGQTASITCSGDKLGDKFAFWYQQKPGQSPVLVIYLDNKRPSGIPERFSGSNSGNTATLTISGTQALDEADYYCYAWADTYEVFGGGTKVDIKR
As to B1, the binding result in the test with recombinant human IL-1β and in the test with recombinant mouse IL-1β was “binds” each time.

B2: aIL-6 antibody (antibody, human IgG1, kappa, N297A, V domains shown)
VH: EVQLVESGGGLVQPGGSLRLSCAASGFTFSPFAMSWVRQAPGKGLEWVAKISPGGSWTYYSDTVTGRFTISRDNAKNSLYLQMNSLRAEDTAVYYCARQLWGYYALDIWGQGTTVTVSS
VL: EIVLTQSPATLSLSPGERATLSCSASISVSYMYWYQQKPGQAPRLLIYDMSNLASGIPARFSGSGSGTDFTLTISSLEPEDFAVYYCMQWSGYPYTFGGGTKVEIKR
As for B2, the binding result with Recombinant human IL-6 is listed as “binds”.

B3: BSI-13 (bispecific antibody, human IgG1, kappa, N297A)
heavy: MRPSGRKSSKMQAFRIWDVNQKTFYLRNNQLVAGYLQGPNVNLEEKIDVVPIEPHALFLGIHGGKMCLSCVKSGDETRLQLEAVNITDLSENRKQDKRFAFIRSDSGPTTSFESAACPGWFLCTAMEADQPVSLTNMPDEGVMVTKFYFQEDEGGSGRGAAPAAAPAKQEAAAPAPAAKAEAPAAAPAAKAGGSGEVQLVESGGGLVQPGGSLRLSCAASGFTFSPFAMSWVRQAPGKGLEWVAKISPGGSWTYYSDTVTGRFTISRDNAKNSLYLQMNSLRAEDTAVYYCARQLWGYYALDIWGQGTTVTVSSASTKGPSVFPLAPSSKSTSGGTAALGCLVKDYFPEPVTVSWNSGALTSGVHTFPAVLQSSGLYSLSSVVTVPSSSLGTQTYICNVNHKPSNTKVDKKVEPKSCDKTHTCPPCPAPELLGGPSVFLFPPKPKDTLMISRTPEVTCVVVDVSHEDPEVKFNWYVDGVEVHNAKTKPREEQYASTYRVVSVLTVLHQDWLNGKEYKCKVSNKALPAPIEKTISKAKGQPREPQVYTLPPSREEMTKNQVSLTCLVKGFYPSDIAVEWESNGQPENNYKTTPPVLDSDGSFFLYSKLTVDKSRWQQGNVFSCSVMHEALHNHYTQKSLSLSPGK
light: EIVLTQSPATLSLSPGERATLSCSASISVSYMYWYQQKPGQAPRLLIYDMSNLASGIPARFSGSGSGTDFTLTISSLEPEDFAVYYCMQWSGYPYTFGGGTKVEIKRTVAAPSVFIFPPSDEQLKSGTASVVCLLNNFYPREAKVQWKVDNALQSGNSQESVTEQDSKDSTYSLSSTLTLSKADYEKHKVYACEVTHQGLSSPVTKSFNRGEC
notes: aIL-6 antibody fused with IL-1RA by a linker peptide
Turning to B3, in the test with Recombinant human IL-6, the binding result is given as “binds”.

B4: BSI-16 (bispecific antibody, human IgG1, kappa)
heavy: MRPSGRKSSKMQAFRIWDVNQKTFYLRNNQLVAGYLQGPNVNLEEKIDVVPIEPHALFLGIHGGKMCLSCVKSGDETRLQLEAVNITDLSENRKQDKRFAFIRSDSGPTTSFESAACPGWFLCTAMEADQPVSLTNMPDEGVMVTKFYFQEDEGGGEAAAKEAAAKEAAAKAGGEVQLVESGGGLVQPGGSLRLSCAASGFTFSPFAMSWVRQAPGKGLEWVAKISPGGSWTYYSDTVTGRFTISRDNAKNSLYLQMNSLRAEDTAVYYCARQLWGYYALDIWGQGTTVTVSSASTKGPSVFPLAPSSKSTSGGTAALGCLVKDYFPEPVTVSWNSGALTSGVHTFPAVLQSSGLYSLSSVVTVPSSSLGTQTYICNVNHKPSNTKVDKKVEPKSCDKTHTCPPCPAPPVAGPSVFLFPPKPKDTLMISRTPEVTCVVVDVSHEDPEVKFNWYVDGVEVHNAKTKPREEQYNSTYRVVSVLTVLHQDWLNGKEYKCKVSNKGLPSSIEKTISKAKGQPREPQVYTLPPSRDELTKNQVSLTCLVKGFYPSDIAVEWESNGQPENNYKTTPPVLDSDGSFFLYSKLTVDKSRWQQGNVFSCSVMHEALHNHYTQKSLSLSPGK
light: B3 light
notes: as for B3
For B4, in the test with Recombinant human IL-6, the binding result is reported as “binds”.

The record behind these values is patent US20220233710A1 (NANTONG YICHEN BIOPHARMA, published 2022).
